Where a chain is given by its changes, count along the chain named. Values belong to the binder of their own block, whether it stands above or below them.
Columns and labels:
[1] = target: T1, human CD3 on cells (human PBMC; Jurkat TCR/CD3 NFAT reporter cells) (human, UniProt P07766 23-207; P04234 22-171; P09693 23-182); assay: cell-based or functional assay
[2] = target: T2, recombinant CD3D&E protein (human CD3-his tag) (human, UniProt P04234 22-105; P07766 23-126, limits assumed); assay: SPR Biacore, Ab captured on Protein A;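 also: humanized antibodies on a Protein A chip, human CD3-his analyte flowed over in serial dilutions for 3 min, dissociation tracked 120–360 s on a Biacore T200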
T2 construct: Analyte in Biacore; also called CD3D&E-His; CD3d&ε-His
T2 sequence (P04234 22-105 limits assumed, chain 1 of 2): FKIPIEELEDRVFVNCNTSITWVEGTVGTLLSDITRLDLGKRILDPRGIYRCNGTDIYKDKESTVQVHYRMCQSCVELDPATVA
T2 sequence (P07766 23-126 limits assumed, chain 2 of 2): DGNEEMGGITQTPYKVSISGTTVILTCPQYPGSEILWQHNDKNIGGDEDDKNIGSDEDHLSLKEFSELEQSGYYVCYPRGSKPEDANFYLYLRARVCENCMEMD

[3] = target: T1, human CD3 on cells (human PBMC; Jurkat …); assay: cell-based or functional assay; remark: listed apart in the source
human CD3 protein = target: T3, human CD3 protein (human, UniProt P07766 23-126; P04234 22-105); assay: ELISA, plate-coated CD3;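 also: binding to plate-immobilized human CD3 protein, bound antibody detected with peroxidase-labelled anti-human IgG and TMB, read as absorbance at 450 nm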
T3 construct: ELISA coating protein; also called Human CD3D & CD3E Heterodimer Protein
T3 sequence (P07766 23-126 limits assumed, chain 1 of 2): as the sequence (P07766 23-126 limits assumed, chain 2 of 2) above
T3 sequence (P04234 22-105 limits assumed, chain 2 of 2): as the sequence (P04234 22-105 limits assumed, chain 1 of 2) above
For Emax in this document: unit not given here.

T1 sequence (P07766 23-207, chain 1 of 3): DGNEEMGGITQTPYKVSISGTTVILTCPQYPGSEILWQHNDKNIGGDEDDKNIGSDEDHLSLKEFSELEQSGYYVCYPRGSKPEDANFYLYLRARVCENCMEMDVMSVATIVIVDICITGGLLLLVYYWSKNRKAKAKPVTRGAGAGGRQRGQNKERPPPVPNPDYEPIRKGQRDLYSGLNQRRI
T1 sequence (P04234 22-171, chain 2 of 3): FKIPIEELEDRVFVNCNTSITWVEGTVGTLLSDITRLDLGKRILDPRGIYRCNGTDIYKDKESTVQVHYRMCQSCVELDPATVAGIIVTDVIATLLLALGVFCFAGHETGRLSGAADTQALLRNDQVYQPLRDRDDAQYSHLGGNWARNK
T1 sequence (P09693 23-182, chain 3 of 3): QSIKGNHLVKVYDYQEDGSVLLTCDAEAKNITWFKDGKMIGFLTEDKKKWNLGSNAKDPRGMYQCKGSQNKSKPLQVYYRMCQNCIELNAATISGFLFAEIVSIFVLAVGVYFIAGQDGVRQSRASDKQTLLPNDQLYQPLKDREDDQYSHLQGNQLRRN

B1: Hu153A6B1-9 (antibody, V domains shown)
VH: EVQLQESGPGLVKPSETLSLTCTVSGGSISSYNIHWVRQPPGKGLEWMGRIRYNGDTSYNSALKSRLTISRDTSKNQFSLKLSSVTAADTAVYYCARGPYGGSREPLFDYWGQGTMVTVSS
VL: DIQMTQSPSSLSASVGDRVTITCKTSQNINKYLNWFQQKPGKAPKLLIYTTNNLQTGIPSRFSGSGSGTDFTLTISSLQPEDFATYYCLQHGSGYTFGQGTKLEIK
notes: humanized mAb
% of SP34 [1]: 73.6%
Emax [1]: 4310
Kd [2]: 61.7 nM
koff [2]: 0.0344 s⁻¹
kon [2]: 558000 M⁻¹ s⁻¹
CD3-NFAT Activity by CD3 mAb [3]: > 50 % SP34
EC50 (human CD3 protein): 0.00335 µg/mL

B2: Hu192A7B9-4 (antibody, V domains shown)
VH: B1 VH with I34V, I51M, A96T, Y100R, S103Y, R104Y, E105S, P106A
VL: B1 VL with T25A, K31R, F36Y, T50I, T51A, N53S, I58V, G92N, G94W
notes: humanized mAb
CD3-NFAT Activity by CD3 mAb [3]: ≤ 50 % SP34
EC50 (human CD3 protein): 0.0228 µg/mL

B3: Hu192A7B9-1 (antibody, V domains shown)
VH: EVQLQESGPGLVKPSETLSLTCTVSGGSISSYNVHWIRQPPGKGLEWIGRMRYNGDTSYNSALKSRVTISVDTSKNQFSLKLSSVTAADTAVYYCARGPRGGYYSALFDYWGQGTMVTVSS
VL: B1 VL with T25A, K31R, F36Y, T50I, T51A, N53S, I58V, G92N, G94W
notes: humanized mAb
CD3-NFAT Activity by CD3 mAb [3]: ≤ 50 % SP34
EC50 (human CD3 protein): 0.148 µg/mL

B4: Hu192A7B9-2 (antibody, V domains shown)
VH: B3 VH with I37V, V71R
VL: B1 VL with T25A, K31R, F36Y, T50I, T51A, N53S, I58V, G92N, G94W
notes: humanized mAb
CD3-NFAT Activity by CD3 mAb [3]: ≤ 50 % SP34
EC50 (human CD3 protein): 0.194 µg/mL

B5: Hu192A7B9-16 (antibody, V domains shown)
VH: B3 VH with I37V, I48M, V67L, V71R, A96T
VL: B1 VL with T25A, K31R, F36Y, Y49S, T50I, T51A, N53S, G92N, G94W
notes: humanized mAb
Kd [2]: 146 nM
koff [2]: 0.0143 s⁻¹
kon [2]: 97600 M⁻¹ s⁻¹
CD3-NFAT Activity by CD3 mAb [3]: > 50 % SP34
EC50 (human CD3 protein): 0.00746 µg/mL

B9: Hu192A7B9-3 (antibody, V domains shown)
VH: B3 VH with I37V, I48M, V67L, V71R
VL: B1 VL with T25A, K31R, F36Y, T50I, T51A, N53S, I58V, G92N, G94W
notes: humanized mAb
CD3-NFAT Activity by CD3 mAb [3]: ≤ 50 % SP34
EC50 (human CD3 protein): 0.0862 µg/mL

B11: Hu192A7B9-7 (antibody, V domains shown)
VH: B3 VH
VL: B1 VL with T25A, K31R, F36Y, Y49S, T50I, T51A, N53S, I58V, G92N, G94W
notes: humanized mAb
Kd [2]: 79.6 nM
koff [2]: 0.0151 s⁻¹
kon [2]: 190000 M⁻¹ s⁻¹
CD3-NFAT Activity by CD3 mAb [3]: ≤ 50 % SP34
EC50 (human CD3 protein): 0.0226 µg/mL

B12: Hu153A6B1-4 (antibody, V domains shown)
VH: B1 VH with A96T
VL: B1 VL with F36Y, I58V
notes: humanized mAb
% of SP34 [1]: 44.1%
Emax [1]: 2580
Kd [2]: 58.5 nM
koff [2]: 0.0195 s⁻¹
kon [2]: 334000 M⁻¹ s⁻¹
CD3-NFAT Activity by CD3 mAb [3]: ≤ 50 % SP34
EC50 (human CD3 protein): 0.00372 µg/mL

B14: Hu192A7B9-6 (antibody, V domains shown)
VH: B3 VH with G27F, I29L, S30T, I37V, I48M, V67L, V71R, F78V, A96T
VL: B1 VL with T25A, K31R, F36Y, T50I, T51A, N53S, I58V, G92N, G94W
notes: humanized mAb
Kd [2]: 283 nM
koff [2]: 0.024 s⁻¹
kon [2]: 84900 M⁻¹ s⁻¹
CD3-NFAT Activity by CD3 mAb [3]: > 50 % SP34
EC50 (human CD3 protein): 0.00859 µg/mL

Further binders by falling Kd [2], results first:

Kd [2]: 58.1 nM
koff [2]: 0.00317 s⁻¹
kon [2]: 54600 M⁻¹ s⁻¹
CD3-NFAT Activity by CD3 mAb [3]: > 50 % SP34
EC50 (human CD3 protein): 0.00974 µg/mL
B10: Hu192A7B9-12 (antibody, V domains shown)
VH: B3 VH with G27F, I29L, S30T, I37V, I48M, V67L, V71R, F78V, A96T
VL: B1 VL with T25A, K31R, F36Y, Y49S, T50I, T51A, N53S, I58V, G92N, G94W
notes: humanized mAb

Kd [2]: 56 nM
koff [2]: 0.00317 s⁻¹
kon [2]: 56500 M⁻¹ s⁻¹
CD3-NFAT Activity by CD3 mAb [3]: > 50 % SP34
EC50 (human CD3 protein): 0.00883 µg/mL
B13: Hu192A7B9-18 (antibody, V domains shown)
VH: B3 VH with G27F, I29L, S30T, I37V, I48M, V67L, V71R, F78V, A96T
VL: B1 VL with T25A, K31R, F36Y, Y49S, T50I, T51A, N53S, G92N, G94W
notes: humanized mAb

Kd [2]: 55 nM
koff [2]: 0.00462 s⁻¹
kon [2]: 83900 M⁻¹ s⁻¹
CD3-NFAT Activity by CD3 mAb [3]: > 50 % SP34
EC50 (human CD3 protein): 0.00712 µg/mL
B6: Hu192A7B9-22 (antibody, V domains shown)
VH: B3 VH with I37V, I48M, V67L, V71R, A96T
VL: DIQMTQSPSSLSASVGDRVTITCKASQNINRYLNWYQQKPGKAPKVLISIANSLQTGIPSRFSGSGSGTDFTLTISSLQPEDFATYFCLQHNSWYTFGQGTKLEIK
notes: humanized mAb

Kd [2]: 22 nM
koff [2]: 0.00631 s⁻¹
kon [2]: 286000 M⁻¹ s⁻¹
CD3-NFAT Activity by CD3 mAb [3]: ≤ 50 % SP34
EC50 (human CD3 protein): 0.0145 µg/mL
B7: Hu192A7B9-13 (antibody, V domains shown)
VH: B3 VH
VL: B6 VL with V46L, F87Y
notes: humanized mAb

Kd [2]: 12.3 nM
koff [2]: 0.000862 s⁻¹
kon [2]: 70200 M⁻¹ s⁻¹
CD3-NFAT Activity by CD3 mAb [3]: > 50 % SP34
EC50 (human CD3 protein): 0.0158 µg/mL
B8: Hu192A7B9-23 (antibody, V domains shown)
VH: B3 VH with G27F, I37V, I48M, V67L, V71R, F78V, A96T
VL: B6 VL
notes: humanized mAb

Source: patent US20240417469A1 (CONCEPT TO MEDICINE BIOTECH, published 2024)
